Here are results for 1 substance from paper PMC3543441.

As a reminder, the stoichiometry N is a count of units in the complex or per binding partner.

Assay [1] addresses C-terminal truncated Entamoeba histolytica ornithine decarboxylase (EhODCΔ15) (Entamoeba histolytica). In words: SEC; HiLoad 16/60 Superdex 200, purified protein at 5 mg/ml injected, 0.5 ml/min; elution compared with Gel Filtration HMW Calibration kit markers; eluted at 74 ml.
The target is the same in assay [2]. In words: crystal structure; sitting drop, 20% PEG 3350, 0.2 M LiCl, pH 6.8, 20°C; P212121, four molecules per asymmetric unit; molecular replacement with human ODC (PDB 2ON3); apo-enzyme.

With “C-terminal truncated Entamoeba histolytica ornithine decarboxylase (EhODCΔ15) (enzyme)”, the figures for the stoichiometry N in assay [1] and in assay [2] were 2 and 4, respectively.
